Measured values: patent publication US20240327534A1 (HARPOON THERAPEUTICS, published 2024)
Changes are numbered by the printed parent chain.

T1: human BCMA on BCMA expressing cell lines (human, UniProt Q02223 1-184)
T1 sequence: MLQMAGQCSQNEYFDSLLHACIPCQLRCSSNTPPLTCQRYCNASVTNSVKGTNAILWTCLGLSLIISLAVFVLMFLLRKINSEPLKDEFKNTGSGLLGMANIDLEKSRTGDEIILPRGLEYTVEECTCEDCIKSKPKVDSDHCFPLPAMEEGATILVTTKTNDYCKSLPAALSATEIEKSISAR

T2: human BCMA protein (human, UniProt Q02223 1-54, limits assumed)
T2 sequence: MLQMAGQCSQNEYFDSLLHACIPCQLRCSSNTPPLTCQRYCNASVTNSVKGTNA

B1: BCMA targeting trispecific protein 253BH10 (other, not shown: large carriers; small tags and cut ends)
VHH: QVQLVESGGGLVQPGESLRLSCAASTNIFSISPMGWYRQAPGKQRELVAAIHGFSTLYADSVKGRFTISRDNAKNTIYLQMNSLKPEDTAVYYCNKVPWGDYHPRNVYWGQGTQVTVSS
notes: trispecific; described as a molecule with the parental CDRs; also called BH253
B2: BCMA targeting trispecific protein 01B06 (other)
VHH: B1 VHH with Q1E, E16R, R19T, F54D, T76S, K85R, V91L, D101E
notes: trispecific; not shown: the C-terminal 6xHis tag follows those missing domains and is left out
B3: BCMA targeting trispecific protein 01A05 (other)
VHH: B1 VHH with Q1E, E16R, R19T, I31S, T76S, K85R, V91L
notes: trispecific; not shown: anti-albumin domain, anti-CD3 domain and the linkers of the trispecific (TriTAC) format
B4: BCMA targeting trispecific protein 01A09 (other, not shown: large carriers; small tags and cut ends)
VHH: B1 VHH with Q1E, E16R, R19T, S32T, F54R, T76S, K85R, V91L, D101S
notes: trispecific
B5: BCMA targeting trispecific protein 01B02 (other)
VHH: B1 VHH with Q1E, E16R, R19T, F29T, H52S, T76S, K85R, V91L, K96E
notes: trispecific; not shown: anti-albumin domain, anti-CD3 domain and the linkers of the trispecific; the C-terminal His6 that follows them is left out
B6: BCMA targeting trispecific protein 01H06 (other, not shown: large carriers; small tags and cut ends)
VHH: B1 VHH with Q1E, E16R, R19T, N27S, I28D, S55E, T76S, K85R, V91L, R105G
B7: BCMA targeting trispecific protein 01D05 (other)
VHH: B1 VHH with Q1E, E16R, R19T, I31D, F54T, T76S, K85R, V91L
notes: trispecific; not shown: anti-albumin domain, anti-CD3 domain and the linkers of the trispecific (TriTAC) chain; the C-terminal 6xHis tag follows these missing domains and is left out
B8: BCMA targeting trispecific protein 01C05 (other, not shown: large carriers; small tags and cut ends)
VHH: B1 VHH with Q1E, E16R, R19T, I31S, S55K, T76S, K85R, V91R, R105G
notes: trispecific
B9: BCMA targeting trispecific protein 01B12 (other, not shown: large carriers; small tags and cut ends)
VHH: B1 VHH with Q1E, E16R, R19T, I31T, S55Q, T76S, K85R, V91L, Y108V
notes: trispecific
B10: BCMA targeting trispecific protein 01A06 (other)
VHH: B1 VHH with Q1E, E16R, R19T, S32R, L57V, T76S, K85R, V91L
notes: as for B2
B11: BCMA targeting trispecific protein 01B08 (other, not shown: large carriers; small tags and cut ends)
VHH: B1 VHH with Q1E, E16R, R19T, F29E, F54S, T76S, K85R, V91L, D101R
notes: trispecific
B12: BCMA targeting trispecific protein 01B03 (other, not shown: large carriers; small tags and cut ends)
VHH: B1 VHH with Q1E, E16R, R19T, I31K, F54K, T76S, K85R, V91L, Y108V
notes: trispecific
B13: BCMA targeting trispecific protein 01B05 (other, not shown: large carriers; small tags and cut ends)
VHH: B1 VHH with Q1E, E16R, R19T, F29T, S55E, T76S, K85R, V91L, R105G
notes: trispecific
B14: BCMA targeting trispecific protein 01C10 (other, not shown: large carriers; small tags and cut ends)
VHH: B1 VHH with Q1E, E16R, R19T, F29S, T76S, K85R, V91L, D101Y
notes: trispecific
B15: BCMA targeting trispecific protein 01B07 (other, not shown: large carriers; small tags and cut ends)
VHH: B1 VHH with Q1E, E16R, R19T, I31R, F54N, T76S, K85R, V91L, D101I
notes: trispecific
B16: BCMA targeting trispecific protein 01D02 (other)
VHH: B1 VHH with Q1E, E16R, R19T, F29V, F54K, T76S, K85R, V91L, R105G
notes: trispecific; not shown: the C-terminal His6 follows those missing domains and is left out
B17: BCMA targeting trispecific protein 01C04 (other)
VHH: B1 VHH with Q1E, E16R, R19T, F29P, F54D, T76S, K85R, V91L
notes: as for B7
B18: BCMA targeting trispecific protein 01C06 (other, not shown: large carriers; small tags and cut ends)
VHH: B1 VHH with Q1E, E16R, R19T, F54D, T76S, K85R, V91L, D101K
notes: trispecific
B19: BCMA targeting trispecific protein 01A07 (other)
VHH: B1 VHH with Q1E, E16R, R19T, F29S, F54T, T76S, K85R, V91L, R105G
notes: as for B16
B20: BCMA targeting trispecific protein 01C02 (other)
VHH: B1 VHH with Q1E, E16R, R19T, F29E, F54N, T76S, K85R, V91L, D101R
notes: trispecific; not shown: The C-terminal 6xHis tag is left out because it follows these missing domains
B21: BCMA targeting trispecific protein 01A03 (other, not shown: large carriers; small tags and cut ends)
VHH: B1 VHH with Q1E, E16R, R19T, M34G, F54S, T76S, K85R, V91L
notes: trispecific
B22: BCMA targeting trispecific protein 01A02 (other, not shown: large carriers; small tags and cut ends)
VHH: B1 VHH with Q1E, E16R, R19T, I31S, H52N, T76S, K85R, V91L, Y108H
notes: trispecific
B23: BCMA targeting trispecific protein 01B01 (other, not shown: large carriers; small tags and cut ends)
VHH: B1 VHH with Q1E, E16R, R19T, F29P, F54E, T76S, K85R, V91L, Y108A
notes: trispecific
B24: BCMA targeting trispecific protein 01C01 (other, not shown: large carriers; small tags and cut ends)
VHH: B1 VHH with Q1E, E16R, R19T, F29V, F54H, T76S, K85R, V91L, R105G
notes: trispecific
B25: BCMA targeting trispecific protein 01A04 (other, not shown: large carriers; small tags and cut ends)
VHH: B1 VHH with Q1E, E16R, R19T, S30M, F54D, T76S, K85R, V91L, D101R
notes: trispecific
B26: BCMA targeting trispecific protein 01A01 (other, not shown: large carriers; small tags and cut ends)
VHH: B1 VHH with Q1E, E16R, R19T, N27D, F54G, T76S, K85R, V91L, Y108A
notes: trispecific
B27: BCMA targeting trispecific protein 01B04 (other)
VHH: B1 VHH with Q1E, E16R, R19T, I28D, F54K, T76S, K85R, V91L, Y108K
notes: as for B7
B28: BCMA targeting trispecific protein 01D04 (other)
VHH: B1 VHH with Q1E, E16R, R19T, F29T, F54V, T76S, K85R, V91L, Y108Q
notes: as for B7
B29: BCMA targeting trispecific protein 01B09 (other, not shown: large carriers; small tags and cut ends)
VHH: B1 VHH with Q1E, E16R, R19T, T26S, F54S, T76S, K85R, V91L, R105G
notes: trispecific
B30: BCMA targeting trispecific protein 01C07 (other, not shown: large carriers; small tags and cut ends)
VHH: B1 VHH with Q1E, E16R, R19T, S32Y, L57Y, T76S, K85R, V91L, D101S
notes: trispecific
B31: BCMA targeting trispecific protein 01C08 (other, not shown: large carriers; small tags and cut ends)
VHH: B1 VHH with Q1E, E16R, R19T, I31N, F54G, T76S, K85R, V91L, Y108H
notes: trispecific
B32: BCMA targeting trispecific protein 01A08 (other, not shown: large carriers; small tags and cut ends)
VHH: B1 VHH with Q1E, E16R, R19T, I31S, F54E, T76S, K85R, V91L, N106K
notes: trispecific
B33: BCMA targeting trispecific protein 01D03 (other)
VHH: B1 VHH with Q1E, E16R, R19T, I31N, F54D, T76S, K85R, V91L, Y108R
notes: as for B3

biological target: T1, human BCMA on BCMA expressing cell lines; test: cell-based or functional assay

Row | Binder | TDCC EC50 (EJM cells) [nM]
1 | B1 | 0.0529
2 | B2 | 0.00697
3 | B3 | 0.0151
4 | B4 | 0.0484
5 | B5 | 0.359
6 | B6 | 0.001
7 | B7 | 0.0166
8 | B8 | 0.00307
9 | B9 | 0.0273
10 | B10 | 0.011
11 | B11 | 0.0876
12 | B12 | 0.0964
13 | B13 | 0.00301
14 | B14 | 0.208
15 | B15 | 0.174
16 | B16 | 0.00225
17 | B17 | 0.0175

Row | Binder | TDCC EC50 (EJM cells) [nM]
18 | B18 | 0.0251
19 | B19 | 0.00249
20 | B20 | 0.0373
21 | B21 | 0.0461
22 | B22 | 0.0218
23 | B23 | 0.0195
24 | B24 | 0.00133
25 | B25 | 0.159
26 | B26 | 0.0264
27 | B27 | 0.0161
28 | B28 | 0.016
29 | B29 | 0.00527
30 | B30 | 0.0833
31 | B31 | 0.0457
32 | B32 | 0.00425
33 | B33 | 0.0149

biological target: T2, human BCMA protein; test: affinity to human BCMA protein, method not stated

Row | Binder | Kd [nM]
34 | B1 | 27.7
35 | B2 | 9.1
36 | B3 | 17
37 | B4 | 23.9
38 | B5 | 18.8
39 | B7 | 17.8
40 | B8 | 6.09
41 | B9 | 20.7
42 | B10 | 15.8
43 | B11 | 25.6
44 | B12 | 26.2
45 | B13 | 6.52
46 | B14 | 46.4
47 | B15 | 43.9
48 | B16 | 7.35
49 | B17 | 21.6

Row | Binder | Kd [nM]
50 | B18 | 18.8
51 | B19 | 6.95
52 | B20 | 20
53 | B21 | 30.8
54 | B22 | 21.5
55 | B23 | 19.9
56 | B24 | 6.52
57 | B25 | 37.5
58 | B26 | 21.3
59 | B27 | 18.6
60 | B28 | 18.9
61 | B29 | 11.2
62 | B30 | 19.8
63 | B31 | 28.3
64 | B32 | 11.7
65 | B33 | 20.9
